Test results from paper PMC3711439, “Mechanisms of in vivo binding site selection of the hematopoietic master transcription factor PU.1”.

B1: PU.1 motif oligo 15 (dsDNA)
DNA 1: ACGTGACTTCCTCTCTACGT
DNA 2: ACGTAGAGAGGAAGTCACGT
B2: PU.1 motif oligo 44 (dsDNA)
DNA 1: ACGTCACTTCTCTTTTACGT
DNA 2: ACGTAAAAGAGAAGTGACGT
B3: PU.1 motif oligo 7 (dsDNA)
DNA 1: ACGTCAGTTCCTCTTTACGT
DNA 2: ACGTAAAGAGGAACTGACGT
B4: PU.1 motif oligo 45 (dsDNA)
DNA 1: ACGTCATTTCCTCCTTACGT
DNA 2: ACGTAAGGAGGAAATGACGT
B5: PU.1 motif oligo 13 (dsDNA)
DNA 1: ACGTCACTTCCTCTACACGT
DNA 2: ACGTGTAGAGGAAGTGACGT
B6: PU.1 motif oligo 14 (dsDNA)
DNA 1: ACGTCACTTCCTCTGTACGT
DNA 2: ACGTACAGAGGAAGTGACGT
B7: PU.1 motif oligo 21 (dsDNA)
DNA 1: ACGTGAGTTCCTCTTTACGT
DNA 2: ACGTAAAGAGGAACTCACGT
B8: PU.1 motif oligo 53 (dsDNA)
DNA 1: ACGTCACTTCCATTCTACGT
DNA 2: ACGTAGAATGGAAGTGACGT
B9: PU.1 motif oligo 1 (dsDNA)
DNA 1: ACGTCACTTCCTCTTTACGT
DNA 2: ACGTAAAGAGGAAGTGACGT
B10: PU.1 motif oligo 56 (dsDNA)
DNA 1: ACGTCGTTTCCTCTTTACGT
DNA 2: ACGTAAAGAGGAAACGACGT
B11: PU.1 motif oligo 40 (dsDNA)
DNA 1: ACGTCAGTTCCTTAAAACGT
DNA 2: ACGTTTTAAGGAACTGACGT
B12: PU.1 motif oligo 22 (dsDNA)
DNA 1: ACGTGACTTCCTCATCACGT
DNA 2: ACGTGATGAGGAAGTCACGT
B13: PU.1 motif oligo 35 (dsDNA)
DNA 1: ACGTTGCTTCCTCTTTACGT
DNA 2: ACGTAAAGAGGAAGCAACGT
B14: PU.1 motif oligo 19 (dsDNA)
DNA 1: ACGTCAGTTCCTCTTCACGT
DNA 2: ACGTGAAGAGGAACTGACGT
B15: PU.1 motif oligo 36 (dsDNA)
DNA 1: ACGTCCCTTCCTCTTTACGT
DNA 2: ACGTAAAGAGGAAGGGACGT
B16: PU.1 motif oligo 50 (dsDNA)
DNA 1: ACGTCTCTTCCCCTCTACGT
DNA 2: ACGTAGAGGGGAAGAGACGT
B17: PU.1 motif oligo 51 (dsDNA)
DNA 1: ACGTCACTTCCTTGTCACGT
DNA 2: ACGTGACAAGGAAGTGACGT
B18: PU.1 motif oligo 29 (dsDNA)
DNA 1: ACGTGACTTCCTGTTTACGT
DNA 2: ACGTAAACAGGAAGTCACGT
B19: PU.1 motif oligo 26 (dsDNA)
DNA 1: ACGTAAGTTCCTCATTACGT
DNA 2: ACGTAATGAGGAACTTACGT
B20: PU.1 motif oligo 28 (dsDNA)
DNA 1: ACGTTACTTCCTTTTAACGT
DNA 2: ACGTTAAAAGGAAGTAACGT
B21: PU.1 motif oligo 52 (dsDNA)
DNA 1: ACGTGCCTTCCTCTTTACGT
DNA 2: ACGTAAAGAGGAAGGCACGT
B22: PU.1 motif oligo 27 (dsDNA)
DNA 1: ACGTCTCTTCCTCTTTACGT
DNA 2: ACGTAAAGAGGAAGAGACGT
B23: PU.1 motif oligo 12 (dsDNA)
DNA 1: ACGTCACTTCCTTTCTACGT
DNA 2: ACGTAGAAAGGAAGTGACGT
B24: PU.1 motif oligo 55 (dsDNA)
DNA 1: ACGTCACTTCCCTCCCACGT
DNA 2: ACGTGGGAGGGAAGTGACGT
B25: PU.1 motif oligo 60 (dsDNA)
DNA 1: ACGTCGCTTCCTTCCTACGT
DNA 2: ACGTAGGAAGGAAGCGACGT
B26: PU.1 motif oligo 16 (dsDNA)
DNA 1: ACGTAACTTCCTCATAACGT
DNA 2: ACGTTATGAGGAAGTTACGT
B27: PU.1 motif oligo 54 (dsDNA)
DNA 1: ACGTCTCTTCCTTTCTACGT
DNA 2: ACGTAGAAAGGAAGAGACGT
B28: PU.1 motif oligo 24 (dsDNA)
DNA 1: ACGTAACTTCCTCAATACGT
DNA 2: ACGTATTGAGGAAGTTACGT
B29: PU.1 motif oligo 17 (dsDNA)
DNA 1: ACGTCACTTCCTCCCTACGT
DNA 2: ACGTAGGGAGGAAGTGACGT
B30: PU.1 motif oligo 32 (dsDNA)
DNA 1: ACGTAACTTCCTCCTAACGT
DNA 2: ACGTTAGGAGGAAGTTACGT
B31: PU.1 motif oligo 31 (dsDNA)
DNA 1: ACGTCAGTTCCTCAAAACGT
DNA 2: ACGTTTTGAGGAACTGACGT
B32: PU.1 motif oligo 39 (dsDNA)
DNA 1: ACGTCGCTTCCTCTCCACGT
DNA 2: ACGTGGAGAGGAAGCGACGT
B33: PU.1 motif oligo 25 (dsDNA)
DNA 1: ACGTCACTTCCGCTTCACGT
DNA 2: ACGTGAAGCGGAAGTGACGT
B34: PU.1 motif oligo 30 (dsDNA)
DNA 1: ACGTCAGTTCCTGTTTACGT
DNA 2: ACGTAAACAGGAACTGACGT
B35: PU.1 motif oligo 42 (dsDNA)
DNA 1: ACGTCACTTCCGCCTCACGT
DNA 2: ACGTGAGGCGGAAGTGACGT
B36: PU.1 motif oligo 59 (dsDNA)
DNA 1: ACGTAACTTCTTCCTTACGT
DNA 2: ACGTAAGGAAGAAGTTACGT
B37: PU.1 motif oligo 43 (dsDNA)
DNA 1: ACGTCACTTCCTCTGGACGT
DNA 2: ACGTCCAGAGGAAGTGACGT
B38: PU.1 motif oligo 33 (dsDNA)
DNA 1: ACGTAACTTCCCCAATACGT
DNA 2: ACGTATTGGGGAAGTTACGT
B39: PU.1 motif oligo 18 (dsDNA)
DNA 1: ACGTCACTTCCTCAACACGT
DNA 2: ACGTGTTGAGGAAGTGACGT
B40: PU.1 motif oligo 11 (dsDNA)
DNA 1: ACGTCACTTCCTCAAAACGT
DNA 2: ACGTTTTGAGGAAGTGACGT
B41: PU.1 motif oligo 20 (dsDNA)
DNA 1: ACGTAACTTCCCCATTACGT
DNA 2: ACGTAATGGGGAAGTTACGT
B42: PU.1 motif oligo 34 (dsDNA)
DNA 1: ACGTCACTTCCTCCCCACGT
DNA 2: ACGTGGGGAGGAAGTGACGT
B43: PU.1 motif oligo 47 (dsDNA)
DNA 1: ACGTCGCTTCCTCCTCACGT
DNA 2: ACGTGAGGAGGAAGCGACGT
B44: PU.1 motif oligo 2 (dsDNA)
DNA 1: ACGTCACTTCCTCATTACGT
DNA 2: ACGTAATGAGGAAGTGACGT
B45: PU.1 motif oligo 57 (dsDNA)
DNA 1: ACGTGAGTTCCTTTAAACGT
DNA 2: ACGTTTAAAGGAACTCACGT
B46: PU.1 motif oligo 58 (dsDNA)
DNA 1: ACGTCACTTCCCCAGGACGT
DNA 2: ACGTCCTGGGGAAGTGACGT
B47: PU.1 motif oligo 38 (dsDNA)
DNA 1: ACGTCGCTTCCCCTTCACGT
DNA 2: ACGTGAAGGGGAAGCGACGT
B48: PU.1 motif oligo 3 (dsDNA)
DNA 1: ACGTCACTTCCCCTTTACGT
DNA 2: ACGTAAAGGGGAAGTGACGT
B49: PU.1 motif oligo 48 (dsDNA)
DNA 1: ACGTCACTTCTGCTTTACGT
DNA 2: ACGTAAAGCAGAAGTGACGT
B50: PU.1 motif oligo 49 (dsDNA)
DNA 1: ACGTCAGTTCCTCCTGACGT
DNA 2: ACGTCAGGAGGAACTGACGT
B51: PU.1 motif oligo 41 (dsDNA)
DNA 1: ACGTCACTTCCTAAATACGT
DNA 2: ACGTATTTAGGAAGTGACGT
B52: PU.1 motif oligo 5 (dsDNA)
DNA 1: ACGTCACTTCCTCTCTACGT
DNA 2: ACGTAGAGAGGAAGTGACGT
B53: PU.1 motif oligo 37 (dsDNA)
DNA 1: ACGTCACTTCCTGCTAACGT
DNA 2: ACGTTAGCAGGAAGTGACGT
B54: PU.1 motif oligo 46 (dsDNA)
DNA 1: ACGTCACTTCCTCCAGACGT
DNA 2: ACGTCTGGAGGAAGTGACGT
B55: PU.1 motif oligo 4 (dsDNA)
DNA 1: ACGTCACTTCCTCTATACGT
DNA 2: ACGTATAGAGGAAGTGACGT
B56: PU.1 motif oligo 23 (dsDNA)
DNA 1: ACGTCACTTCCCCAAAACGT
DNA 2: ACGTTTTGGGGAAGTGACGT
B57: PU.1 motif oligo 6 (dsDNA)
DNA 1: ACGTGACTTCCTCTTTACGT
DNA 2: ACGTAAAGAGGAAGTCACGT

target: PU.1 (human, UniProt P17947 1-270); assay: MST; MST: 20 mM Tris-HCl pH 7.6, 1.5 mM MgCl2, 0.5 mM EGTA, 10% glycerol, 300 mM KCl, 10 mM DTT, 25 C; 50 nM Cy3-dsDNA, PU.1 1:1 dilutions from 23 uM; details: protein: recombinant; tags: N-terminal His-tag; label: Cy3 on upper strand

Binder	Kd [nM]
B1	324 ± 45
B2	770 ± 174
B3	222 ± 45
B4	828 ± 8
B5	568 ± 283
B6	658 ± 267
B7	298 ± 15
B8	4600 ± 2570
B9	164 ± 17
B10	670 ± 145
B11	808 ± 97
B12	532 ± 11
B13	414 ± 92
B14	596 ± 7
B15	682 ± 71
B16	2120 ± 890
B17	786 ± 41
B18	361 ± 54
B19	490 ± 141

Binder	Kd [nM]
B20	422 ± 29
B21	887 ± 104
B22	719 ± 116
B23	588 ± 95
B24	1010 ± 192
B25	1895 ± 10
B26	444 ± 55
B27	1700 ± 440
B28	462 ± 77
B29	470 ± 26
B30	464 ± 77
B31	599 ± 142
B32	983 ± 94
B33	613 ± 70
B34	558 ± 77
B35	656 ± 191
B36	1620 ± 20
B37	822 ± 289
B38	611 ± 58

Binder	Kd [nM]
B39	452 ± 107
B40	242 ± 5
B41	234 ± 21
B42	690 ± 134
B43	757 ± 186
B44	272 ± 36
B45	1660 ± 170
B46	1070 ± 229
B47	893 ± 116
B48	454 ± 61
B49	600 ± 7
B50	929 ± 222
B51	620 ± 147
B52	270 ± 23
B53	794 ± 112
B54	634 ± 12
B55	413 ± 84
B56	362 ± 103
B57	190 ± 31
